Measured values: publication PMC7020754

B1: OL1M (dsDNA)
DNA 1: CACCCCTTATGTAGAGACGTGTGTATCGCGATTCTCTTGC
DNA 2: GCAAGAGAATCGCGATACACACGTCTCTACATAAGGGGTG
B2: OL3M (dsDNA)
DNA 1: AGAGCCCGCCACAGACAGAGACGCGTGTGCCTATGTTTCG
DNA 2: CGAAACATAGGCACACGCGTCTCTGTCTGTGGCGGGCTCT

Target: T1, Rv0023 (XRE family transcription regulator) (Mycobacterium tuberculosis, UniProt P9WMI3 1-256)
T1 sequence: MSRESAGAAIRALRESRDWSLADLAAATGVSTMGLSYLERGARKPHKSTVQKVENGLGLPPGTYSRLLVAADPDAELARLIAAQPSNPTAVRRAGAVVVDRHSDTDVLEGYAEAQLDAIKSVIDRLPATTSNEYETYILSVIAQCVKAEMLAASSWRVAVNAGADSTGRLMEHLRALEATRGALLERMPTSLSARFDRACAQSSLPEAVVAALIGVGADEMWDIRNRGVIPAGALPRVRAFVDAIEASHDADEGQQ
Test: EMSA; 8 pmol protein
Conditions: protein: recombinant; tags: His (implied by Ni-NTA purification; pET23a, also printed pET21b); chain copies: 2; label: 32P; blunt

Row | Binder | binding result
1 | B1 | no binding
2 | B2 | no binding
